Experimental data: publication PMC5148173

Assays:
[1] = target: N-terminally hexahistidine tagged wt N_TAIL (C-terminal domain of the MeV nucleoprotein N, aa 401-525) (measles virus (Edmonston B)) (UniProt P04851); assay: ITC; conditions: domain or fragment
[2] = target: N-terminally hexahistidine tagged N_TAIL R490S (measles virus (Edmonston B)) (UniProt P04851); assay: ITC; N_TAIL (25-180 uM) in the cell, XD (300-960 uM) in the microsyringe, 19 injections of 2 uL; 20 C; 10 mM Tris/HCl pH 8, 150 mM NaCl; single set of sites model
[3] = target: N-terminally hexahistidine tagged N_TAIL R497G (measles virus (Edmonston B)) (UniProt P04851); assay: as above
[4] = target: N_TAIL S491L fused to a Gaussia luciferase fragment (glu-PCA) (measles virus) (UniProt P04851); assay: split reporter (BiFC, NanoBiT); KD estimated from the glu-PCA luminescence with the empirically determined equation relating luminescence and the ITC KD values (Fig 4)

C-terminally hexahistidine tagged MeV XD (X domain of the phosphoprotein P, aa 459-507) (from UniProt P03422 459-507)
Kd [1]: 3 µM

C-terminally hexahistidine tagged MeV XD (X domain of the phosphoprotein P, aa 459-507) (from UniProt P03422 459-507) (domain or fragment)
Kd [2]: 20 µM | fold decrease in the binding affinity against wt N TAIL [2]: 7 fold | Kd [3]: 44 µM

XD of the monomeric split-luciferase reassembly assay (glu-PCA) (from UniProt P03422 376-507) (domain or fragment)
Kd [4]: 85 µM
